According to PMC3478262:

Molecular target: Rv0132c–Δ38 protein (Mycobacterium tuberculosis H37Rv) (UniProt P96809)
Assay: SEC

**Q.** With “Rv0132c–Δ38 protein (from UniProt P96809 39-360) (domain or fragment)” as the substance, how does the stoichiometry N read?
**A.** 2
